Values of other authors as cited in patent US7419780B2, “Methods and assays for screening protein targets” (The Trustees of Columbia University in the City of New York, priority 2000, dated 2008).

Conditions: substrate nitrocefin

B1: E. cloacae P99 wt: wild-type E. cloacae P99 cephase (protein, UniProt P05364 21-381, looked up)
Beta-lactamase: TPVSEKQLAEVVANTITPLMKAQSVPGMAVAVIYQGKPHYYTFGKADIAANKPVTPQTLFELGSISKTFTGVLGGDAIARGEISLDDAVTRYWPQLTGKQWQGIRMLDLATYTAGGLPLQVPDEVTDNASLLRFYQNWQPQWKPGTTRLYANASIGLFGALAVKPSGMPYEQAMTTRVLKPLKLDHTWINVPKAEEAHYAWGYRDGKAVRVSPGMLDAQAYGVKTNVQDMANWVMANMAPENVADASLKQGIALAQSRYWRIGSMYQGLGWEMLNWPVEANTVVEGSDSKVALAPLPVAEVNPPAPPVKASWVHKTGSTGGFGSYVAFIPEKQIGIVMLANTSYPNPARVEAAYHILEALQ
- % WT (percentage of wild-type kcat/Km as calculated in that experiment): 100%
- Km: 25 ± 1 µM
- kcat: 780 ± 30 s⁻¹
